One series has as its target MLL4 3500-3630 (UniProt O14686). The experiment in a line: MST. As to conditions: EMSA: LightShift RNA EMSA kit protocol, 1 or 2 nM RNA, 30 min at room temperature, 4 or 6% native PAGE, MST buffer, pH and temperature not given in the …. (In EMSA bound probe runs differently from free probe, usually more slowly.)
A further series has as its target MLL4 4210-4280 (UniProt O14686). The experiment in a line: MST. As to conditions: apparent Kd; EMSA: LightShift RNA EMSA kit protocol, 1 or 2 nM RNA, 30 min at room temperature, 4 or 6% native PAGE; MST buffer, pH and temperature not given in the ….

Consider HOTAIR300, for which the Kd with MLL4 3500-3630 worked out at 970 nM.
Turning to HOTAIR440, the Kd worked out at 100 nM with MLL4 3500-3630 (apparent, from T-jump, aggregation above 1:20 RNA:protein, no saturation) and 13000 nM with MLL4 4210-4280.
As to MEG3 full length, in the series with MLL4 3500-3630, the Kd came to 722 nM.
